According to patent publication US20150056222A1 (Regeneron, published 2015):
Residue numbers refer to the chain shown, from its start. In names and notes the source's numbering stands.

T1: monkey (macaca fascicularis) PRLR on HEK293 cells (macaca fascicularis, UniProt A0A2K5WXK1 25-619)
T1 construct: also called mfPRLR; HEK293/mfPRLR
T1 sequence: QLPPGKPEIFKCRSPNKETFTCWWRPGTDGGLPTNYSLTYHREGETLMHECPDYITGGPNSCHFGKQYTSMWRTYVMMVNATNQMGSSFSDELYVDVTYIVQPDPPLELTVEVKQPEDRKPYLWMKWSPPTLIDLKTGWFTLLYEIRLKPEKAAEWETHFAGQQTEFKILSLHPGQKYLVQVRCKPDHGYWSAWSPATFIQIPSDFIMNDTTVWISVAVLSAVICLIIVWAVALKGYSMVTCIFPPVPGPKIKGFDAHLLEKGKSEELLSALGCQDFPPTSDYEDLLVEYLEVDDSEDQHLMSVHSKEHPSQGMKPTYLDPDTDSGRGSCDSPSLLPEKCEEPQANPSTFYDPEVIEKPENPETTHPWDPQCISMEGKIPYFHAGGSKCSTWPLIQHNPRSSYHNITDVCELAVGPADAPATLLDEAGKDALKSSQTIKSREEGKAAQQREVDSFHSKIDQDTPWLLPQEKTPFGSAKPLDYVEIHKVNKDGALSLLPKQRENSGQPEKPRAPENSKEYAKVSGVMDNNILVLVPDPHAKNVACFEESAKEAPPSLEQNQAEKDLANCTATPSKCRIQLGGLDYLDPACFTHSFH

T2: human prolactin receptor (PRLR) on cells (human, UniProt P16471 25-622)
T2 sequence: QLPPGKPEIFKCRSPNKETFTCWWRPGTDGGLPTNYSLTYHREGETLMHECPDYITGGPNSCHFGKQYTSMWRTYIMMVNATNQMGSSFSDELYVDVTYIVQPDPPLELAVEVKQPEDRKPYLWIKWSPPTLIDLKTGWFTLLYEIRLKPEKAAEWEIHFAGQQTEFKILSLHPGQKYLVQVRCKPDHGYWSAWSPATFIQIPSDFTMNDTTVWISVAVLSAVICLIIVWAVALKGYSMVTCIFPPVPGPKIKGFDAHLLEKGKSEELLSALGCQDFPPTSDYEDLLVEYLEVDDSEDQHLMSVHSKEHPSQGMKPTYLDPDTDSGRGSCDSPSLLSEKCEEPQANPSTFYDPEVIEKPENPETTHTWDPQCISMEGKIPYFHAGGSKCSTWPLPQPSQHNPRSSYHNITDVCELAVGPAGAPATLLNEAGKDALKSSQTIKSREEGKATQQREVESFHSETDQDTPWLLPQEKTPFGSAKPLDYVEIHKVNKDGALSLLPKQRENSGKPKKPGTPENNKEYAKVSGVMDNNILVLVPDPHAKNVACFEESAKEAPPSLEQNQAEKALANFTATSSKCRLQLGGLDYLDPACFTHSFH

T3: mouse PRLR on HEK293 cells (mouse, UniProt Q08501 20-608)
T3 construct: whole, on cells; also called mPRLR; HEK293/mPRLR
T3 sequence (looked up): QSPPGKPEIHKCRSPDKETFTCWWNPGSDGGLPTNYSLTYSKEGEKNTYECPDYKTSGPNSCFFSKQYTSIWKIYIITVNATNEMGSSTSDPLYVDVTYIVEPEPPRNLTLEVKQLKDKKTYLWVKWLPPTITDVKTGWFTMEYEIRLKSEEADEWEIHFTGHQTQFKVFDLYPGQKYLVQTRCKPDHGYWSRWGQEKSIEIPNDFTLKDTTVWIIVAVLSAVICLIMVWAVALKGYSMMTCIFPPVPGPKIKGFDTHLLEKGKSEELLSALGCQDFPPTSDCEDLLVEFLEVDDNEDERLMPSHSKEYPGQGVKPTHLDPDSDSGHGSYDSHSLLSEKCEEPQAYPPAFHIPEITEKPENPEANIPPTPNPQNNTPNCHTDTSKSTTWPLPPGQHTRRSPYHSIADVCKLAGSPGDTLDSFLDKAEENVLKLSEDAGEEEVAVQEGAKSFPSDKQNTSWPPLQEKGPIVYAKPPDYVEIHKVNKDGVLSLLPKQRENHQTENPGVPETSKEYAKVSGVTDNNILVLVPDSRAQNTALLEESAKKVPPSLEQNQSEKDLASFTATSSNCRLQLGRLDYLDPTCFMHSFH

T4: mfPRLR.mmh (soluble monomeric macaca fascicularis PRLR) (macaca fascicularis)
T4 construct: soluble monomeric construct; also called macaca fascicularis (mf) PRLR.mmh
T4 chain: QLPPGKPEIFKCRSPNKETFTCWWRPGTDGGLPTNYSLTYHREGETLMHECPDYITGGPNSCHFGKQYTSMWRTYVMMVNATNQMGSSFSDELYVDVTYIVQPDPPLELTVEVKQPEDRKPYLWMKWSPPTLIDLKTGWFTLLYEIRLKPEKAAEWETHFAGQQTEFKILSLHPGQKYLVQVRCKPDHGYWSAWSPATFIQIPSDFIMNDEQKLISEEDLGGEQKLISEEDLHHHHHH

T5: hPRLR.mmh (soluble monomeric human PRLR) (human)
T5 construct: soluble monomeric construct
T5 chain: T4 chain with V76I, T110A, M125I, T158I, I207T

T6: hPRLR.mFc (soluble dimeric human PRLR) (human)
T6 construct: dimeric construct
T6 chain: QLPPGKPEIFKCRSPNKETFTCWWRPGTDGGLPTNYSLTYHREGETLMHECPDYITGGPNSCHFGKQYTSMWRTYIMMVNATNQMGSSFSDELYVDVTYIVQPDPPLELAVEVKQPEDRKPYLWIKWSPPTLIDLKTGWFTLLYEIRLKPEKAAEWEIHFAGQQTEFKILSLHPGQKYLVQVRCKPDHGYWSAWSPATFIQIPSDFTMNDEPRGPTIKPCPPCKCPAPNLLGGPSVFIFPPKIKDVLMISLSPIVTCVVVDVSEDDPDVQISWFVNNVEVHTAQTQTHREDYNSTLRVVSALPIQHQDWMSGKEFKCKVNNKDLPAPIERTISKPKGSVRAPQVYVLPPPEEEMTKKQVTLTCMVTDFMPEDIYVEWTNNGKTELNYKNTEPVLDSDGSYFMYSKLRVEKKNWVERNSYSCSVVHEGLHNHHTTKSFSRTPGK

B1: H1H6792P (antibody, human IgG1, V domains shown)
VH: EVQLVESGGGLVQPGRSLRLSCAASGFTLDDHAVHWVRQAPGKGLEWVSGISWNSVYIDYADSVKGRFTIFRDNAKNSLYLQMNSLRAEDTAFYYCARDIEGARDYWGQGTLVTVSS
VL: DIQMTQSPSSLSASVGDRVTITCRASQGIRNDLGWYQQKPGKAPKRLIYAASSLQSGVPSRFSGSGYGTEFTLTISSLQPEDFAPYYCLQHNSYPLTFGGGTKVEIK
notes: human IgG1 Fc (H1H)
B2: H1H6967N (antibody, human IgG1, V domains shown)
VH: EVQLVESGGDLVHPGRSLRLSCAASGFPFDEYAMHWVRQVPGKGLEWVSGISWSNNNIGYADSVKGRFTISRDNAKNSLYLQMNSLRPEDTAFYYCAKSGIFDSWGQGTLVTVSS
VL: EIVMTQSPATLSVSPGERATLSCRASQSVSRDLAWYQQKPGQAPRLLIHGASTRATGIPARFSGSGSGAEFTLIISSLQSEDFAVYYCQQYNNWPLTFGGGTKVEIK
notes: also called H2M6967N
B3: H1H6781P (antibody, human IgG1, V domains shown)
VH: EVQLVESGGDLVQPGESLRLSCTASGFTFNSYEMNWVRQAPGKGLEWVSYISSSGGTKYYVDSVKGRFTISRDNAKKSLYLQMNSLRADDTALYYCARLNGVDVFDIWGQGTMVTVSS
VL: DIQMTQSPSSLSASVGDRVTITCRASQDIFNYLAWFQQKPGKVPELLISAASTLQSGVPSRFSGSGSGTYFTLTISSLQPEDIATYYCQRYNSAPLTFGGGTKVEIK
notes: human IgG1 Fc (H1H)
B4: H1H6795P (antibody, human IgG1, V domains shown)
VH: QVQLVQSGAEVKKPGASVKVSCKASGYTFGTSGITWVRQAPGQGLEWMGWSSAYNGKTDYAQKFQDRVTMTTDTSTTTGYMEMRSLTSDDTAVYYCTTVVRRPFDFWGQGTLVTVSS
VL: DIQMTQSPSSLSASVGDRVTITCRASQDINNFLAWFQQKPGKAPKSLIYAASSLQSGVPSKFSGGGSGTDFALTISSLQPEDFATYYCQQYSSYPITFGQGTRLEIK
notes: human IgG1 Fc (H1H)
B5: H1H6783P (antibody, human IgG1, V domains shown)
VH: QVQLQQSGPGLVKPSQTLSLTCAISGDSVSSNTFAWNWIRQSPSRGLEWLGRTYYRSKWYIDYAESVKSRITITPDTSKNQFSLQLNSVTPEDTALYYCAGGYTYAPRGAFDIWGQGTMVTVSS
VL: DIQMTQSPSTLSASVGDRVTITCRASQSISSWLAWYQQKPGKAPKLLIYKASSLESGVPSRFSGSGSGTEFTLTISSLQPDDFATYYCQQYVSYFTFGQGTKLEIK
notes: human IgG1 Fc (H1H)
B6: H1H6774P (antibody, human IgG1, V domains shown)
VH: EVQLVESGGGLAQPGGSLRLSCVASGFTFSTYWMSWVRQAPGKGLDWVGNIKQDGSEQNYVDSVRGRFTISRDNAKNSLFLQMNSLRAEDTGVYYCATLLTKGDYWGQGTLVTVSS
VL: DIQMTQSPSSLSASVGDSVTITCRASQDISNYLDWFQQKPGKAPKSLIYAASILQGGVPSRFSGSGYGTDFTLTISSLQPEDFATYYCRQYKTYPFTFGPGTKVDIK
notes: human IgG1 Fc (H1H)
B7: H1H6953N (antibody, human IgG1, V domains shown)
VH: EVQLLESGGGLVQPGGTLRLSCAASGFTFSAYAMSWVRQAPGKGLEWVSSINVRAGDTYYADSVKGRFTISRDNSKNTLFLLMNSLRAEDTAAYYCAKARYSSNWGFDFWGQGTLVTVSS
VL: DIVMTQSPDSLTVSLGARTTINCQSSQTILHSSNNHNYLAWYQQKPGLPPKLLIYWSSTRESGVPDRFSGSGSGTDFTLTISSLQAEDVAIYYCQQYSNTPYTFGQGTKLEIN
notes: also called H1M6953N

Molecular target: T1, monkey (macaca fascicularis) PRLR on …
Experiment: FACS, HEK293/mfPRLR cells; also: test concentration or dose not given here

| FACS Cell Binding (Fold Above Background) | Binder |
| --- | --- |
| 28 fold above background | B1 |
| 28 fold above background | B2 |
| 26 fold above background | B3 |
| 22 fold above background | B4 |
| 27 fold above background | B5 |
| 29 fold above background | B6 |
| 29 fold above background | B7 |

Molecular target: T2, human prolactin receptor (PRLR) on cells
Experiment: cell-based or functional assay

| % Internalization relative to Control I (alexa488 intensity in intracellular vesicles at 37 C, T47D cells) | Binder |
| --- | --- |
| 156% | B1 |
| 169% | B2 |
| 165% | B3 |
| 151% | B4 |
| 161% | B5 |
| 162% | B6 |
| 154% | B7 |

Molecular target: T3, mouse PRLR on HEK293 cells
Experiment: FACS, HEK293/mPRLR cells; also: test concentration or dose not given here

| FACS Cell Binding (Fold Above Background) | Binder |
| --- | --- |
| 3 fold above background | B1 |
| 2 fold above background | B2 |
| 1 fold above background | B3 |
| 1 fold above background | B4 |
| 1 fold above background | B5 |
| 1 fold above background | B6 |
| 2 fold above background | B7 |

Molecular target: T2, human prolactin receptor (PRLR) on cells
Experiment: FACS, T47D cells (native PRLR); also: test concentration or dose not given here

| FACS Cell Binding (Fold Above Background) | Binder |
| --- | --- |
| 37 fold above background | B1 |
| 41 fold above background | B2 |
| 40 fold above background | B3 |
| 34 fold above background | B4 |
| 38 fold above background | B5 |
| 39 fold above background | B6 |
| 40 fold above background | B7 |

Molecular target: T4, mfPRLR.mmh (soluble monomeric macaca …)
Experiment: SPR, 37C, mAb capture
Method: (§1) Measurements were conducted on a T200 Biacore instrument. Kinetic association (kₐ) and dissociation (kd) rate constants were determined by processing and fitting the data to a 1:1 binding model using Scrubber 2.0 curve fitting software. Binding dissociation equilibrium constants (KD) and dissociative half-lives (t_{1/2}) were calculated from the kinetic rate constants as: KD (M)=kd/kₐ; and […].

| T½ | Binder |
| --- | --- |
| 4 min | B1 |
| 7.1 min | B2 |
| 43 min | B3 |
| 2 min | B4 |
| 9 min | B5 |
| 3 min | B6 |
| 4.5 min | B7 |

Molecular target: T5, hPRLR.mmh (soluble monomeric human PRLR)
Experiment: SPR, 37C, mAb capture
Method: as §1

| T½ | Binder |
| --- | --- |
| 5 min | B1 |
| 12.4 min | B2 |
| 37 min | B3 |
| 2 min | B4 |
| 7 min | B5 |
| 4 min | B6 |
| 9.4 min | B7 |

Molecular target: T6, hPRLR.mFc (soluble dimeric human PRLR)
Experiment: SPR, 37C, mAb capture
Method: as §1

| T½ | Binder |
| --- | --- |
| 66 min | B1 |
| 119 min | B2 |
| 117 min | B3 |
| 149 min | B4 |
| 83 min | B5 |
| 60 min | B6 |
| 68 min | B7 |

Molecular target: T2, human prolactin receptor (PRLR) on cells
Experiment: FACS, HEK293/hPRLR cells; also: test concentration or dose not given here

| FACS Cell Binding (Fold Above Background) | Binder |
| --- | --- |
| 37 fold above background | B1 |
| 38 fold above background | B2 |
| 37 fold above background | B3 |
| 1 fold above background | B4 |
| 37 fold above background | B5 |
| 1 fold above background | B6 |
| 37 fold above background | B7 |
